Here are results for 1 substance from paper PMC5443830.

The experiment deals with Cry1AcMod activated toxin (Bacillus thuringiensis) (UniProt P05068). Briefly: SDS-PAGE and western blot of the 200 kDa oligomer band.

The substance “Cry1AcMod activated toxin (from UniProt P05068 1-1178) (domain or fragment)” registered an optical density of the 200 kDa oligomer band with BBMV from the resistant strain relative to BBMV from the susceptible strain (=100%) of 100%.
